B6: recombinant human GREM1 (hGREM1-His; C-terminal 10His tagged, R&D, #5190-GR) (ligand)
chain: KKKGSQGAIPPPDKAQHNDSEQTQSPQQPGSRNRGRGQGRGTAMPGEEVLESSQEALHVTERKYLKRDWCKTQPLKQTIHEEGCNSRTIINRFCYGQCNSFYIPRHIRKEEGSFQSCSFCKPKKFTTMMVTLNCPELQPPTKKKRVTRVKQCRCISIDLDHHHHHHHHHH

Several values for one entry are separate records, joined by “and”; a condition that tells them apart may be missing. Identical values can stand only once. Like-named read-outs stand apart in the source and are kept apart here.

The target of experiment [1] is B6. Put plainly: cell-based or functional assay.
In experiment [2] the target is T1, human GREM1 (hGREM1-His; SEQ ID NO: 595) (human, UniProt O60565 25-184).
T1 construct: also called biotin-hGREM1-His; recombinant human GREM1 protein
T1 sequence: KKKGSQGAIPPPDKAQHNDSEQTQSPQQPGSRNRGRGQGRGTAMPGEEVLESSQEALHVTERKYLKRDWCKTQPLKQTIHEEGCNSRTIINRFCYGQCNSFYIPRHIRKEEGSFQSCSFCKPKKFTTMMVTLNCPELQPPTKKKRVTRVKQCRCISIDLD
Put plainly: SPR, Biacore T200, 25 C, mAb captured, hGREM1-His injected.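 Also: Heparin-supplemented HBS-EP+ used as running buffer, association and dissociation phases followed, Kd computed as koff divided by kon and half-life derived from koff.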 A general note: Surface plasmon resonance follows binding to a sensor surface in real time, without labels.

In experiment [3] the target is recombinant human BMP4 (hBMP4; R&D, #314-BP/CF) (human). Put plainly: cell-based or functional assay.
recombinant human BMP4 (hBMP4; R&D, #314-BP/CF) (human), sequence (P12644 293-408): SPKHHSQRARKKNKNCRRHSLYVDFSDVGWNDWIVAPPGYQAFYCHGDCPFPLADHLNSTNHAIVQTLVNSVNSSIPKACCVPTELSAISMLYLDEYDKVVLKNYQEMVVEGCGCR
Experiment [4] shares this target. Put plainly: cell-based or functional assay. The source holds these as a separate data set.
The target is the same in experiment [5]. Nature of the experiment: cell-based or functional assay. This is another data set of the same source.

B1: H2bM2782N (antibody, mouse IgG2, V domains shown)
VH: EVQLVESGGGLVQPGGSLRLSCAASGFTFSSYSMNWVRQAPGKGLEWVSSISSSSNYINYADSIKGRFTISRDNAKNSLYLQMNSLRAEDTAVYYCARVNWDYPFDCWGRGTLVTVSS
VL: DIQMTQSPSSLSASVGDRVTITCRASQDIRHYLVWYQQKPGKVPKLLIYAASTLQSGVPSRFSGSGSGTDFILTISSLQPEDVATYYCQKYNSAPFTFGPGTKVDIK
notes: H2M prefix = mouse IgG2 Fc (here H2bM); also called H2M2782N
For the molecule B1, in experiment [1], the “IC50 [M], inhibition of hGREM1-His, W-20-17/BRE-luc luciferase (200 pM hBMP4, 20 nM hGREM1-His)” value was 3.5e-09 M. For the same molecule, in experiment [2], the Kd came to 15.3 nM, the koff was found to be 0.00189 s⁻¹, the kon was 123000 M⁻¹ s⁻¹ and the t1/2 is 6.1 min.

B2: H1M2907N (antibody, V domains shown)
VH: QVQLVESGGGVVQPGRSLRLSCAASGFTFSSYGMHWVRQAPGKGLEWVAIIWNDGSNKYYVDSVKGRFTISRANSKNTLYLQMNSLRAEDTAVYYCARDGLEPDAFDIWGQGTMVTVSS
VL: EIVLTQSPATLSLSPGERATLSCRASQSVSSFLAWYQQKPGQAPRLLIYDASNRATGIPARFSGSGSGTDFTLTISSLEPEDFAVYYCQQRSNWPPYTFGQGTKLEIK
notes: H1M prefix marks the Fc (chimeric, mouse constant domains)
As for B2, in experiment [1], the “IC50 [M], inhibition of hGREM1-His, W-20-17/BRE-luc luciferase (100 pM hBMP4, 10 nM hGREM1-His)” value was 1.8e-09 M. In experiment [2], the affinity, expressed as Kd, was 45.3 nM; the koff was found to be 0.00281 s⁻¹; the kon was 62000 M⁻¹ s⁻¹; the t1/2 amounted to 4.1 min.

B3: H3M2788N (antibody, V domains shown)
VH: QVQLVESGGGVVQPGRSLRLSCAASGFTFSSHGMHWVRQAPGKGLEWVAVIWYDGSNKYHADSVKGRFTIYRDNSKNTLDLQMNSLRVEDTAMYYCAREDSNNEDLDYWGQGTLVTVSS
VL: DIQMTQSPSSLSASVGDRVTITCRASQGIRNDLGWFQQKPGKAPKRLIYVASNLQSGVPSRFSGSGSGTEFTLTISSLQPEDFATYYCLQHSNYPPWTFGQGTKVEIK
notes: H3M prefix marks the Fc (chimeric, mouse constant domains)
Regarding B3, the “IC50 [M], inhibition of hGREM1-His, W-20-17/BRE-luc luciferase (200 pM hBMP4, 20 nM hGREM1-His)” value in experiment [1] was 2.5e-08 M. In experiment [2], this molecule registered a Kd of 4.2 nM, a koff of 0.00035 s⁻¹, an association rate constant (kon) of 80000 M⁻¹ s⁻¹ and a t1/2 of 33 min.

B4: H2bM2786N (antibody, mouse IgG2, V domains shown)
VH: EVHLLESGGGLVQPGGSLRLSCAASGFTFSSYVMNWVRQAPGKGLEWVSAISGSGGSTYYGDSVKGRSTISRDNSKNTLYLQMKSLRAEDTAVYYCAKGDIAPIVFDAFDIWGQGTMVTVSS
VL: DIQMTQSPSSLSASVGDRVTITCQASQDISNCLNWYQHKPGKAPKLLIYDASYLETGVPSRFSGSGSGTDFTFTISSLQPEDIATYYCQQYDNLPYTFGQGTKLEIK
notes: H2M prefix = mouse IgG2 Fc (here H2bM); also called H2M2786N
Consider B4, for which the “IC50 [M], inhibition of hGREM1-His, W-20-17/BRE-luc luciferase (200 pM hBMP4, 20 nM hGREM1-His)” value in experiment [1] amounted to 1.9e-08 M. In experiment [2], this molecule showed a Kd of 33 nM, a koff of 0.006 s⁻¹, a kon of 180000 M⁻¹ s⁻¹ and a t1/2 of 1.9 min.

B5: H3M2929N (antibody, V domains shown)
VH: QVQLVESGGGVVQPGRSLRLSCAASGFIFSSYGMHWVRQAPGKGLEWVAVIWNDGSNKYSADSVKGRFTVSRDNSKNTLYLQMNSLKAEDTAVYYCARDGEWEVFDYWGQGTLVTVSS
VL: DIVMTQSPVTLSASPGERATLSCRASQSVRSNLAWYQEKPGQAPRLLIYGASTRATGIPARFSGSGSGTEFTLTISSLQSEDFAVYYCQQYNDWPPWTFGQGTKVEIK
notes: as for B3
For the molecule B5, the “IC50 [M], inhibition of hGREM1-His, W-20-17/BRE-luc luciferase (100 pM hBMP4, 10 nM hGREM1-His)” value in experiment [1] turned out to be 2.2e-09 M. In addition, in experiment [2], the Kd was 29 nM, the koff stood at 0.00362 s⁻¹, the kon is 125000 M⁻¹ s⁻¹ and the t1/2 is 3 min.
As to B6, in experiment [3], the “hGrem1-His IC50 (nM), inhibition of 100 pM hBMP4, W-20-17/BRE-luc luciferase” value is 6 nM and 4.3 nM and 4.2 nM and 5.4 nM; the “hGrem1-His IC50 (nM), inhibition of 200 pM hBMP4, W-20-17/BRE-luc luciferase” value came to 10.3 nM. The “hGrem1-His IC50 (nM), inhibition of 100 pM hBMP4, W-20-17/BRE-luc luciferase” value in experiment [4] was 2.9 nM. Moreover, the “hGREM1-His, IC50 (M); W-20-17 cell differentiation assay (alkaline phosphatase)” value in experiment [5] came to 4.4e-09 M.

Usually Kd stands for a measure of binding affinity in units of concentration. What is called koff is a measure of how fast the partners let go of each other. A lower koff goes with a long-lived complex. In general, kon refers to a measure of how fast the partners come together. Read a low kon as slower complex formation.
